This note sets out measurements from the supplement of paper PMC9732359.

The data set is described as follows: protein stability index of a GFP-peptide fusion (yeast GPS) (PSI 1-4); higher = more stable; sorted into four equal gates, so the index is relative within each strain. Summed up:
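For each peptide, the protein stability index sums the read frequency in every gate after multiplying it by the gate number. Read frequencies came from plasmids that were PCR-amplified from each gate and Illumina-sequenced, with reads assigned to strains by barcodes. The gates were four equal bins of GFP/Cherry fluorescence ratio applied to mid-log yeast in leucine-free medium carrying a pooled library of tiled 17-residue yeast protein peptides fused downstream of GFP on a Cherry-expressing plasmid.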

± gives the uncertainty stated by the source.

Regarding VTADTVILFDSDWNPQA [ISW2], the protein stability index (doa10∆) turned out to be 3.08 ± 0.071, the protein stability index (pdr5∆) is 2.76 ± 0.058, the protein stability index (san1∆) was 2.81 ± 0.089 and the protein stability index (ubr1∆) is 2.52 ± 0.044.
Taken in the same sequence, the figures for IRITSLQGDLTFTKKCL [SIR4] were 2.87 ± 0.068, 2.71 ± 0.078, 2.81 ± 0.085 and 2.79 ± 0.059.
Regarding LAHSQHRCAIRSGALIK [SSN2], the protein stability index runs as follows: (doa10∆) 1.5 ± 0.058; (pdr5∆) 1.22 ± 0.046; (san1∆) 1.16 ± 0.13; (ubr1∆) 1.16 ± 0.037.
Take DLVIVDENELKKSEEKL [MTW1]: the protein stability index (doa10∆) came to 3.51 ± 0.19.
As for QVVGPFHTSFSAVVGPN [SMC4], the protein stability index was found to be 2.53 ± 0.063 (doa10∆), 2.39 ± 0.055 (pdr5∆), 2.78 ± 0.055 (san1∆) and 2.73 ± 0.037 (ubr1∆).
With EREVFVDVKPKSPKERE [RPC25], the protein stability index (pdr5∆) came out at 2.98 ± 0.17 and the protein stability index (ubr1∆) came to 3.34 ± 0.13.
As for ETESSVSNNEANTPSIP [SWI3], the protein stability index is 3.09 ± 0.053 (doa10∆), 3.12 ± 0.069 (pdr5∆), 3.11 ± 0.054 (san1∆) and 3.15 ± 0.054 (ubr1∆).
Taken in the same sequence, the figures for HLIKCFFKITLQRASSK [ITC1] were 1.38 ± 0.073, 1.19 ± 0.047, 1.18 ± 0.12 and 1.08 ± 0.051.
Taken in the same sequence, the figures for EHNPSAHTASVGVVFGS [COR1] were 3.21 ± 0.16, 3.24 ± 0.13, 2.88 ± 0.14 and 2.22 ± 0.27.
The corresponding values for VTIWYRAPELLLGARHY [SSN3] are 1.9 ± 0.1, 1.85 ± 0.096, 2.07 ± 0.15 and 1.9 ± 0.072.
For LMKCCHEAYSIIEKITD [RRP45], the protein stability index is, setting by setting: (doa10∆) 2.56 ± 0.067; (pdr5∆) 2.68 ± 0.09; (san1∆) 2.56 ± 0.086; (ubr1∆) 2.52 ± 0.18.
Taken in the same sequence, the figures for GTNPLSSDGAYTEQFQH [SSN2] were 3.23 ± 0.093, 3.09 ± 0.075, 2.96 ± 0.055 and 3.06 ± 0.062.
Taken in the same sequence, the figures for QLVIQQGTGKKTASLGN [ISW2] were 3.2 ± 0.24, 2.83 ± 0.21, 3.23 ± 0.21 and 3.41 ± 0.24.
Taken in the same sequence, the figures for ISVSSRSDREYPLLIRM [SRP14] were 2.56 ± 0.097, 2.44 ± 0.1, 1.94 ± 0.13 and 2.34 ± 0.072.
For LLEQDTSTEKLYKLNDK [PRE9], the protein stability index was 2.99 ± 0.062 (doa10∆), 3.08 ± 0.07 (pdr5∆), 2.91 ± 0.058 (san1∆) and 2.91 ± 0.056 (ubr1∆).
The corresponding values for PSSEVYSPIEKESPWKI [RRP6] are 2.87 ± 0.15, 3.03 ± 0.1, 2.82 ± 0.12 and 3.29 ± 0.11.
For the sequence DQSISKLQSWDKVSSCF [NNF1], the protein stability index is 1.51 ± 0.072 (doa10∆), 1.59 ± 0.069 (pdr5∆), 1.42 ± 0.1 (san1∆) and 1.82 ± 0.053 (ubr1∆).
The corresponding values for LSVEIGVLTDISSLIGG [NUT1] are 1.32 ± 0.13, 1.95 ± 0.11, 1.89 ± 0.25 and 2.18 ± 0.12.
The corresponding values for LEFYKDKFFNEVNKSEL [SIR3] are 3.31 ± 0.066, 3.27 ± 0.058, 3.25 ± 0.043 and 3.43 ± 0.064.
The corresponding values for LSAPLSKELRAQYGIKA [RPL26A] are 2.91 ± 0.14, 2.31 ± 0.12, 3.48 ± 0.12 and 1.87 ± 0.15.
As for LQYTALTGSPNNPLVQK [ARP7], the protein stability index (doa10∆) was determined as 2.66 ± 0.07, the protein stability index (pdr5∆) is 2.7 ± 0.064, the protein stability index (san1∆) is 2.34 ± 0.078 and the protein stability index (ubr1∆) was found to be 2.95 ± 0.045.
Taken in the same sequence, the figures for QEAFKIYQHLASHNEKD [SRP72] were 1.89 ± 0.082, 3.08 ± 0.1, 2.93 ± 0.15 and 2.89 ± 0.1.
On to ASTPSIRPDGRLPHQFR [RRP42], for which the protein stability index runs as follows: (doa10∆) 2.9 ± 0.14; (pdr5∆) 3.21 ± 0.12; (san1∆) 2.81 ± 0.19; (ubr1∆) 2.99 ± 0.089.
Taken in the same sequence, the figures for FQYVIDESSGTSRIDEE [SMC4] were 2.93 ± 0.082, 2.86 ± 0.09, 2.05 ± 0.15 and 3.23 ± 0.13.
Taken in the same sequence, the figures for LHNIWSNGLLSIVLLLL [YML103C/NUP188] were 1.38 ± 0.069, 1.34 ± 0.059, 1.5 ± 0.14 and 1.54 ± 0.12.
Turning to IRALQPKLKEGALHFVQ [YIL149C/MLP2], the protein stability index runs as follows: (doa10∆) 2.77 ± 0.074; (pdr5∆) 2.06 ± 0.077; (san1∆) 2.17 ± 0.068; (ubr1∆) 2.69 ± 0.071.
Taken in the same sequence, the figures for VSTSSGAAANNNDQKRQ [YJL041W/NSP1] were 3.37 ± 0.084, 3.17 ± 0.073, 3.27 ± 0.035 and 3.45 ± 0.069.
